Assay [1] addresses T1, HPV16-E2 peptide on HLA-A*02:01 (human).
T1 peptide: TLQDVSLEVYL
Put plainly: killing.

The target in assay [2] is T2, HPV16-E5 peptide on HLA-C*05:01 (human).
T2 peptide: NLDTASTTL
In words: cytokine release.

Assay [3] has as its target T3, HPV16-E5 peptide on HLA-C*08:02 (human).
T3 peptide: NLDTASTTL
Put plainly: cytokine release.

B1: E2-TLQ-TCR (TCR, V domains shown)
Valpha: AQTVTQSQPEMSVQEAETVTLSCTYDTSESNYYLFWYKQPPSRQMILVIRQEAYKQQNATENRFSVNFQKAAKSFSLKISDSQLGDTAMYFCAFTYGGSQGNLIFGKGTKLSVKP
Vbeta: EPEVTQTPSHQVTQMGQEVILRCVPISNHLYFYWYRQILGQKVEFLVSFYNNEISEKSEIFDDQFSVERPDGSNFTLKIRSTKLEDSAMYFCASRASVGVGTGELFFGEGSRLTVL
In the case of B1, the binding result in assay [1] is “recognises”.

B2: E5-NLD-TCR (TCR, V domains shown)
Valpha: AQKVTQAQTEISVVEKEDVTLDCVYETRDTTYYLFWYKQPPSGELVFLIRRNSFDEQNEISGRYSWNFQKSTSSFNFTITASQVVDSAVYFCALSEGGGSQGNLIFGKGTKLSVKP
Vbeta: GVSQSPRYKVTKRGQDVALRCDPISGHVSLYWYRQALGQGPEFLTYFNYEAQQDKSGLPNDRFSAERPEGSISTLTIQRTEQRDSAMYRCASSPELAGPQETQYFGPGTRLLVL
For B2, the binding result in assay [2] and in assay [3] was “recognises” in each case.

Source of the values: US20230348558A1 (published 2023).
